The text below walks through data of patent US20210107943A1 (UNIVERSITY OF FLORIDA RESEARCH FOUNDATION, published 2021).

Sequences and labels used below:
T1: mCATCH(-) peptide, Ac-EQEPEPEPEQE-Am
T1 construct: Mutant with proline in place of the phenylalanine residues; also called mutant of CATCH(-)
T1 peptide: Ac-EQEPEPEPEQE-NH2

B1: mCATCH(+) peptide, Ac-QQKPKPKPKQQ-Am (peptide)
peptide: Ac-QQKPKPKPKQQ-NH2
notes: Mutant with proline in place of the phenylalanine residues; also called mutant of CATCH(+)
B2: CATCH(-) peptide, Ac-EQEFEFEFEQE-Am (peptide)
peptide: Ac-EQEFEFEFEQE-NH2
notes: also called CATCH (6-); negative peptide segment
B3: CATCH(+) peptide, Ac-QQKFKFKFKQQ-Am (peptide)
peptide: Ac-QQKFKFKFKQQ-NH2
notes: also called CATCH (4+); positive peptide segment

Data set [1] deals with T1, mCATCH(-) peptide, Ac-EQEPEPEPEQE-Am. Briefly: ThT fluorimetry, kinetic.
Data set [2] deals with the molecule itself. Briefly: ThT fluorescence microscopy and the data taken together (self-assembly). As to the method:
For samples containing only CATCH peptides, ThT was mixed with samples at a 1:1 (v/v) ratio, 5 μL of each sample was placed onto a glass microscope slide, samples were covered with a cover slip, and samples were viewed using a GFP filter set. For samples containing CATCH peptides and CATCH(−)GFP, 0.75 μM CATCH(−)GFP was mixed with 200 μM CATCH(+) and 187.5 μM CATCH(−), unless otherwise specified. 5 μL of each sample was placed onto a glass microscope slide, samples were covered with a cover slip, and samples were viewed using a GFP filter set. For all samples, images were collected using an exposure time of 4 s.

Data set [3] concerns the target B1. The data set can be described thus: ThT fluorimetry, equimolar mixture. The procedure:
(§1) Thioflavin T (ThT) Assay. A ThT stock solution containing 0.8 mg/mL of thioflavin T (Acros) in 1× phosphate-buffered saline (PBS) (137 mM NaCl, 2.7 mM, KCl, 10 mM Na₂HPO₄ and 1.8 mM KH₂PO₄, pH 7.4) was filtered through a 0.22 μm syringe filter (Millex), and further diluted 1:10 with 1× PBS to create a working solution. Peptide samples were mixed with the ThT working solution at a 1:10 (v/v) ratio, added to a black 96-well plate (Corning), and analyzed with a Molecular Devices SpectraMax M3 spectrophotometer (excitation 450, emission 482 nm). All samples were run in triplicate, with the mean and standard deviation of these samples reported.
(§2) Nanofiber preparation. Stock solutions of CATCH(−) and CATCH(+) were prepared by dissolving lyophilized peptides in 1× PBS to a final concentration of 500 μM. Peptide concentration was confirmed using Phe absorbance (λ=260 nm). CATCH peptides were then mixed at a 1:1 (v/v) ratio and incubated overnight for formation of nanofibers, unless stated otherwise.

Data set [4] concerns the molecule itself. The data set can be described thus: TEM and circular dichroism of the peptide alone (self-assembly). (Circular dichroism is widely used to follow secondary structure.)
The target of data set [5] is T1, mCATCH(-) peptide, Ac-EQEPEPEPEQE-Am. The data set can be described thus: ThT fluorimetry, equimolar mixture. The procedure:
as §1, §2

B1: in data set [1], the binding result is given as “no binding”.

On to B2, for which the binding result in data set [2] and in data set [3] was “no binding” each time. For the molecule B3, the binding result in data set [4] and in data set [5] was “no binding” throughout.
